System: Bacillus subtilis
Assay: cleaved RNA product abundance (RNA/gDNA barcode ratio) relative to median wild-type variant (ratio to wild type); higher = more accumulation of the downstream cleavage product
Settings: cleavage site: cggR-gapA (positions -7 to +36 mutated)
Method in brief: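 Reporter mRNAs based on truncated aprE or tetM carried barcoded, mutagenized RNase Y cleavage-site windows built from oligos with a 9% error rate and were integrated into the B. subtilis chromosome. Cultures grew in LB at 37°C from OD600 0.0003 to 0.3. Cleaved RNA was gel-selected, reverse transcribed and barcode-sequenced together with genomic DNA barcodes, and UMIs were collapsed. Cleaved product abundance is the per-construct ratio of RNA to gDNA barcodes, scaled to the median of constructs carrying the unmutated site.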

[1] = experiment (reporter, strain, medium): exp 2b: truncated aprE reporter, strain BJT200
[2] = experiment (reporter, strain, medium): exp 4a: truncated aprE reporter, strain BJT201 with 2% xylose (RNase J1 expressed)
[3] = experiment (reporter, strain, medium): exp 6: tetM reporter, strain 168

Row | Sequence | cleaved RNA product abundance [1] | cleaved RNA product abundance [2] | cleaved RNA product abundance [3]
1 | ACAGACGAAGGAGCCGCAAAGAAGTTATTAAGGGATGAATAATCCCTAAATATACATATCTCTCACTTATTTAAA | 0.498 | 0.465 | –
2 | ACAGACGAAGGAGCCGCAAAGAAGTTATTAAGGGATGAATAATCCCTAAATATAGATATCTCTCACTTATTTAAA | 0.495 | 0.551 | –
3 | ACAGACGAAGGAGCCGCAAAGAAGTTATTAAGGGATGAATAATCCCTAAATATTAATATCTCTCACTTATTTAAA | 0.189 | – | –
4 | ACAGACGAAGGAGCCGCAAAGAAGTTATTAAGGGATGAATAATCCCTAAATTTAAATATCTCTCACTTATTTAAA | 0.162 | – | –
5 | ACAGACGAAGGAGCCGCAAAGAAGTTATTAAGGGATGAATAATCCCTAAGTATAAATATCTCTCACTTATTTAAA | 0.255 | 0.502 | –
6 | ACAGACGAAGGAGCCGCAAAGAAGTTATTAAGGGATGAATAATCCCTAATTATAAATATCTCTCACTTATTTAAA | 0.365 | 0.447 | –
7 | ACAGACGAAGGAGCCGCAAAGAAGTTATTAAGGGATGAATAATCCCTACATATAAATATCTCTCACTTATTTAAA | – | 0.203 | –
8 | ACAGACGAAGGAGCCGCAAAGAAGTTATTAAGGGATGAATAATCCCTATATATAAATATCTCTCACTTATTTAAA | – | 0.37 | –
9 | ACAGACGAAGGAGCCGCAAAGAAGTTATTAAGGGATGAATAATCCCTCAAAAAAAATATCTCTCACTTATTTAAA | – | 0.0713 | –
10 | ACAGACGAAGGAGCCGCAAAGAAGTTATTAAGGGATGAATAATCCCTCAAAAGAAATATCTCTCACTTATTTAAA | – | 0.0815 | –
11 | ACAGACGAAGGAGCCGCAAAGAAGTTATTAAGGGATGAATAATCCCTCAAAATAAAAATCTCTCACTTATTTAAA | – | 0.393 | –
12 | ACAGACGAAGGAGCCGCAAAGAAGTTATTAAGGGATGAATAATCCCTCAAAATAAACATCTCTCACTTATTTAAA | – | 0.316 | –
13 | ACAGACGAAGGAGCCGCAAAGAAGTTATTAAGGGATGAATAATCCCTCAAAATAAATAACTCTCACTTATTTAAA | – | 0.363 | –
14 | ACAGACGAAGGAGCCGCAAAGAAGTTATTAAGGGATGAATAATCCCTCAAAATAAATAGCTCTCACTTATTTAAA | 0.26 | – | –
15 | ACAGACGAAGGAGCCGCAAAGAAGTTATTAAGGGATGAATAATCCCTCAAAATAAATATCTCTCACTTATTTAAA | 0.302 | 0.393 | 0.369
16 | ACAGACGAAGGAGCCGCAAAGAAGTTATTAAGGGATGAATAATCCCTCAAAATAAATATTTCTCACTTATTTAAA | – | 0.319 | –
17 | ACAGACGAAGGAGCCGCAAAGAAGTTATTAAGGGATGAATAATCCCTCAAAATAAATTTCTCTCACTTATTTAAA | – | 0.285 | –
18 | ACAGACGAAGGAGCCGCAAAGAAGTTATTAAGGGATGAATAATCCCTCAAAATACATATCTCTCACTTATTTAAA | 0.202 | 0.3 | –
19 | ACAGACGAAGGAGCCGCAAAGAAGTTATTAAGGGATGAATAATCCCTCAAAATAGATATCTCTCACTTATTTAAA | – | 0.322 | –
20 | ACAGACGAAGGAGCCGCAAAGAAGTTATTAAGGGATGAATAATCCCTCAAAATATATATCTCTCACTTATTTAAA | – | 0.304 | –
21 | ACAGACGAAGGAGCCGCAAAGAAGTTATTAAGGGATGAATAATCCCTCAAATATAAATATCTCTCACTTATTTAA | 0.38 | 0.539 | –
22 | ACAGACGAAGGAGCCGCAAAGAAGTTATTAAGGGATGAATAATCCCTCAACAAAAATATCTCTCACTTATTTAAA | 0.105 | – | –
23 | ACAGACGAAGGAGCCGCAAAGAAGTTATTAAGGGATGAATAATCCCTCAACATAAAAATCTCTCACTTATTTAAA | 0.242 | 0.234 | –
24 | ACAGACGAAGGAGCCGCAAAGAAGTTATTAAGGGATGAATAATCCCTCAACATAAACATCTCTCACTTATTTAAA | – | 0.215 | –
25 | ACAGACGAAGGAGCCGCAAAGAAGTTATTAAGGGATGAATAATCCCTCAACATAAATATCTCTCACTTATTTAAA | 0.22 | 0.345 | 0.137
